T1: mouse B7-1 on cells (WEHI 231, undifferentiated ES cells) (mouse, UniProt Q00609 38-306)
T1 construct: whole, on cells; also called CD80
T1 sequence (looked up): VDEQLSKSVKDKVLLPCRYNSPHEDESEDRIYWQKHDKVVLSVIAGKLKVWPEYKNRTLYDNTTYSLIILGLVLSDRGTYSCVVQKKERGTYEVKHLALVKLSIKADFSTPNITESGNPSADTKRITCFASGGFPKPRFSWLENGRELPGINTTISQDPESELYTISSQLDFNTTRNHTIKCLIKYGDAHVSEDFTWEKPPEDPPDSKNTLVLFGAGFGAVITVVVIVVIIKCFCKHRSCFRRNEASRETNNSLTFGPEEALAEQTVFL

T2: mouse B7-2 on WEHI 231 cells (mouse, UniProt P42082 24-309)
T2 construct: whole, on cells; also called CD86
T2 sequence (looked up): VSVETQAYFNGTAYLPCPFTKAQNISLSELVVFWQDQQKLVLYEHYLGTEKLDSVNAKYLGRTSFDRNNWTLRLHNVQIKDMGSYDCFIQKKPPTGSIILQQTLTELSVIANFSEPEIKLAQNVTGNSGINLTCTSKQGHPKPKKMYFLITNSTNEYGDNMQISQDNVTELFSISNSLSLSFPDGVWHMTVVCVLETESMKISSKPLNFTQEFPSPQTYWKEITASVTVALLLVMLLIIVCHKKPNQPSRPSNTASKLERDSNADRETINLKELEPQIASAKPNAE

T3: murine GL50-1 (mGL50-1) expressed on transfected COS cells (mouse, UniProt Q9JHJ8 47-322)
T3 construct: 322 amino acid protein
T3 sequence: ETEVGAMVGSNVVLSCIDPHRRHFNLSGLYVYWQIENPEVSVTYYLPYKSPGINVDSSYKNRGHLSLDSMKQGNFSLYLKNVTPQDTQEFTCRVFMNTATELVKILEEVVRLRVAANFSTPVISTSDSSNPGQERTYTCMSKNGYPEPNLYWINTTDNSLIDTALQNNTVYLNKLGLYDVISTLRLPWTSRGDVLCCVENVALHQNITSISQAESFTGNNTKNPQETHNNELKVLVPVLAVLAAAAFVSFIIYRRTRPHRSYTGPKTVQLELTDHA

T4: murine GL50-2 (mGL50-2) expressed on transfected COS cells (mouse, UniProt Q9JHJ8 44-320)
T4 construct: Alternatively spliced form of 347 residues; also called mGL50-B
T4 sequence: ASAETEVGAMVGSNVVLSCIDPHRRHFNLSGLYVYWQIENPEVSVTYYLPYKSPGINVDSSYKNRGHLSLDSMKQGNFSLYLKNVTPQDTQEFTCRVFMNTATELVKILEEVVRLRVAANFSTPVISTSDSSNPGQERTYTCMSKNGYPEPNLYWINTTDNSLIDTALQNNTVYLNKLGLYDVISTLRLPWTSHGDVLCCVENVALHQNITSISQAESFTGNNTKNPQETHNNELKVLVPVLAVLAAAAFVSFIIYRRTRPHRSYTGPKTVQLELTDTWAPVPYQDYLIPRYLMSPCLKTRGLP

T5: CD28-Ig (mouse, UniProt P31041 20-150)
T5 construct: not shown: Ig part not described
T5 sequence (looked up): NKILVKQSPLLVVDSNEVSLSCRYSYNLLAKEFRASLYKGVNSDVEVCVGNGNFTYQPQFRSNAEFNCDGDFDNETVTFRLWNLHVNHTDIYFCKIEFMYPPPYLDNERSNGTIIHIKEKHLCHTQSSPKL

B1: mICOS-mIgG2am (Fc fusion)
chain: EINGSADHRMFSFHNGGVQISCKYPETVQQLKMRLFREREVLCELTKTKGSGNAVSIKNPMLCLYHLSNNSVSFFLNNPDSSQGSYYFCSLSIFDPPPFQERNLSGGYLHIYESQLCCQLKLEPRGPTIKPCPPCKCPAPNLEGGPSVFIFPPKIKDVLMISLSPIVTCVVVDVSEDDPDVQISWFVNNVEVHTAQTQTHREDYNSTLRVVSALPIQHQDWMSGKAFACAVNNKDLPAPIERTISKPKGSVRAPQVYVLPPPEEEMTKKQVTLTCMVTDFMPEDIYVEWTNNGKTELNYKNTEPVLDSDGSYFMYSKLRVEKKNWVERNSYSCSVVHEGLHNHHTTKSFSRTPGK
notes: Fusion of mouse ICOS with a mouse IgG2a domain mutated to reduce effector function; also called ICOS-Ig; ICOS Ig
B2: hICOS-mIgG2am (Fc fusion)
chain: EINGSANYEMFIFHNGGVQILCKYPDIVQQFKMQLLKGGQILCDLTKTKGSGNTVSIKSLKFCHSQLSNNSVSFFLYNLDHSHANYYFCNLSIFDPPPFKVTLTGGYLHIYESQLCCQLKFEPRGPTIKPCPPCKCPAPNLEGGPSVFIFPPKIKDVLMISLSPIVTCVVVDVSEDDPDVQISWFVNNVEVHTAQTQTHREDYNSTLRVVSALPIQHQDWMSGKAFACAVNNKDLPAPIERTISKPKGSVRAPQVYVLPPPEEEMTKKQVTLTCMVTDFMPEDIYVEWTNNGKTELNYKNTEPVLDSDGSYFMYSKLRVEKKNWVERNSYSCSVVHEGLHNHHTTKSFSRTPGK
notes: Fusion of human ICOS with the mutated mouse IgG2a domain
B3: human DAP-12 expressed on transfected COS cells (other, UniProt O43914 22-113, looked up)
chain: LRPVQAQAQSDCSCSTVSPGVLAGIVMGDLVLTVLIALAVYFLGRLVPRGRGAAEAATRKQRITETESPYQELQGQRSDVYSDLNTQRPYYK
notes: whole, on cells; Negative control transfectant

What was measured:
[1] = biological target: T1, mouse B7-1 on cells (WEHI 231, …); experiment: flow cytometry on WEHI 231 cells with blocking anti B7-1 and B7-2 antibodies
[2] = biological target: T2, mouse B7-2 on WEHI 231 cells; experiment: as above
[3] = biological target: B3; experiment: flow cytometry on transfected COS cells
[4] = biological target: T3, murine GL50-1 (mGL50-1) expressed on …; experiment: flow cytometry on transfected COS cells
[5] = biological target: T4, murine GL50-2 (mGL50-2) expressed on …; experiment: flow cytometry on transfected COS cells
[6] = biological target: T5, CD28-Ig; experiment: flow cytometry on transfected COS cells

Binder: B1
binding result [1]: no binding | binding result [2]: no binding | binding result [3]: no binding (tested: 5 µg/ml of fusion protein)

Binder: B2
binding result [4]: binds | binding result [5]: binds

Binder: B3
binding result [6]: no binding (tested: 5 µg/ml of fusion protein)

— patent publication US20040054158A1 (GENETICS INSTITUTE, published 2004)
